Numbered stars: 1 amine (or outer) side, 2 acyl side, 3 side chain; on linkers, the order of the positions; unused ones are H or OH. Square brackets hold non-standard residues; d marks the D form. Side chains are listed from the residue outwards. * marks the point of attachment. TTDS = 4-[3-[2-[2-(3-aminopropoxy)ethoxy]ethoxy]propylamino]-4-oxo-butanoyl; γGlu = O=C(O)[C@H](CCC(=O)[*:2])N[*:1]; Palmitoyl = CCCCCCCCCCCCCCCC(=O)*; αMeF = C[C@](N)(Cc1ccccc1)C(=O)O; αMeK = C[C@](N)(CCCCN)C(=O)O; hLys = NCCCCC[C@H](N)C(=O)O; AEEA = NCCOCCOCC(=O)O; Aib = CC(C)(N)C(=O)O
B1: Relaxin peptide analogue of SEQ ID NO: 8 (peptide)
peptide: Ac-LEGREKVRAK(Ac)I[Aib][Aib]EGK([AEEA-AEEA-AEEA-AEEA-γGlu-γGlu-γGlu-Palmitoyl])STFS[αMeK]RAK(Ac)-NH2
SMILES: CCCCCCCCCCCCCCCC(=O)N[C@@H](CCC(=O)N[C@@H](CCC(=O)N[C@@H](CCC(=O)NCCOCCOCC(=O)NCCOCCOCC(=O)NCCOCCOCC(=O)NCCOCCOCC(=O)NCCCC[C@H](NC(=O)CNC(=O)[C@H](CCC(=O)O)NC(=O)C(C)(C)NC(=O)C(C)(C)NC(=O)[C@@H](NC(=O)[C@H](CCCCNC(C)=O)NC(=O)[C@H](C)NC(=O)[C@H](CCCNC(=N)N)NC(=O)[C@@H](NC(=O)[C@H](CCCCN)NC(=O)[C@H](CCC(=O)O)NC(=O)[C@H](CCCNC(=N)N)NC(=O)CNC(=O)[C@H](CCC(=O)O)NC(=O)[C@H](CC(C)C)NC(C)=O)C(C)C)[C@@H](C)CC)C(=O)N[C@@H](CO)C(=O)N[C@H](C(=O)N[C@@H](Cc1ccccc1)C(=O)N[C@@H](CO)C(=O)N[C@@](C)(CCCCN)C(=O)N[C@@H](CCCNC(=N)N)C(=O)N[C@@H](C)C(=O)N[C@@H](CCCCNC(C)=O)C(N)=O)[C@@H](C)O)C(=O)O)C(=O)O)C(=O)O

biological target: T1, human RXFP1 (human, UniProt Q9HBX9 1-757); assay: cell-based or functional assay
T1 sequence (looked up): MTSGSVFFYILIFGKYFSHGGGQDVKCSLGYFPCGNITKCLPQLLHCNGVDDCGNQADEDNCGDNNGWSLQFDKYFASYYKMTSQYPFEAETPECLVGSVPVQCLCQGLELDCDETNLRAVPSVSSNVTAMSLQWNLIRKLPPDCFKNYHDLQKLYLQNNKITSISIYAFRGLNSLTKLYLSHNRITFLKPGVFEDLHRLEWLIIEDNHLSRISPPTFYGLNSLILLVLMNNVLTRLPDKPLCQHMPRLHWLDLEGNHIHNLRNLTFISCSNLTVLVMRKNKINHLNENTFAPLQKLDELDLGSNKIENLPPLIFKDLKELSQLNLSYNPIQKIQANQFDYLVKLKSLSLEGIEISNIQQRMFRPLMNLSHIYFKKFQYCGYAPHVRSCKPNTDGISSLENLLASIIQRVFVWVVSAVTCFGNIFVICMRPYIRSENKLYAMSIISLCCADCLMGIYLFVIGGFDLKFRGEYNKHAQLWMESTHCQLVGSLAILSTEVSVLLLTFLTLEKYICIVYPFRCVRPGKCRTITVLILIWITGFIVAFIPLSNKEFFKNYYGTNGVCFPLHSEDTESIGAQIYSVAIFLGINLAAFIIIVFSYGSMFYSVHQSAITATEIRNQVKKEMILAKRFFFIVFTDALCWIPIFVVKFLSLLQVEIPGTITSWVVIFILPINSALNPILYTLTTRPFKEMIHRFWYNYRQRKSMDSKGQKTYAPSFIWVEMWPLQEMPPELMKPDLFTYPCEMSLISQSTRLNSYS

In order of falling “EC50 (nM), OVCAR 5 cells (cAMP)” value:
1. B1  1.86 nM
2. Ac-LEGREKVR[Aib]K(Ac)I[Aib][Aib]EGK([TTDS-TTDS-TTDS-γGlu-γGlu-γGlu-Palmitoyl])STWS[Aib]RAK(Ac)-NH2 [Relaxin peptide analogue of SEQ ID NO: 82]  0.54 nM
3. Ac-[Aib]EGREKVRAK(Ac)I[Aib]IEGK([TTDS-TTDS-TTDS-γGlu-γGlu-γGlu-Palmitoyl])STFS[αMeK]RAK(Ac)-NH2 [Relaxin peptide analogue of SEQ ID NO: 86]  0.3 nM
4. Ac-LEGRERVR[Aib]K(Ac)I[Aib][Aib]EGK([TTDS-TTDS-TTDS-γGlu-γGlu-γGlu-Palmitoyl])STWS[Aib]RRK(Ac)-NH2 [Relaxin peptide analogue of SEQ ID NO: 85]  0.3 nM
5. Ac-LEGREKVRAK(Ac)I[Aib][Aib]EGK([TTDS-TTDS-TTDS-γGlu-γGlu-γGlu-Palmitoyl])SKWS[Aib]RKK(Ac)-NH2 [Relaxin peptide analogue of SEQ ID NO: 83]  0.25 nM
6. Ac-LEGREKVRAK(Ac)I[Aib][Aib]EGK([TTDS-TTDS-TTDS-γGlu-γGlu-γGlu-Palmitoyl])STFS[hLys]RAK(Ac)-NH2 [Relaxin peptide analogue of SEQ ID NO: 88]  0.17 nM
7. Ac-LEGREKVRAK(Ac)IA[Aib]EGK([TTDS-TTDS-TTDS-γGlu-γGlu-γGlu-Palmitoyl])STFS[αMeK]RAK(Ac)-NH2 [Relaxin peptide analogue of SEQ ID NO: 90]  0.14 nM
8. Ac-LEGREKVRAK(Ac)I[Aib]IEGK([TTDS-TTDS-TTDS-γGlu-γGlu-γGlu-Palmitoyl])STFS[αMeK]RAK(Ac)-NH2 [Relaxin peptide analogue of SEQ ID NO: 84]  0.1 nM
9. Ac-LEGREKVRAK(Ac)I[Aib][Aib]EGK([TTDS-TTDS-TTDS-γGlu-γGlu-γGlu-Palmitoyl])STFSRRAK(Ac)-NH2 [Relaxin peptide analogue of SEQ ID NO: 87]  0.1 nM
10. Ac-LEGREKVRAK(Ac)I[Aib][Aib]EGK([TTDS-TTDS-TTDS-γGlu-γGlu-γGlu-Palmitoyl])ST[αMeF]SRRAK(Ac)-NH2 [Relaxin peptide analogue of SEQ ID NO: 89]  0.1 nM

In order of falling “EMax, OVCAR 5 cells (cAMP)” value:
1. Ac-LEGREKVRAK(Ac)IA[Aib]EGK([TTDS-TTDS-TTDS-γGlu-γGlu-γGlu-Palmitoyl])STFS[αMeK]RAK(Ac)-NH2 [Relaxin peptide analogue of SEQ ID NO: 90]  97%
2. Ac-LEGREKVRAK(Ac)I[Aib][Aib]EGK([TTDS-TTDS-TTDS-γGlu-γGlu-γGlu-Palmitoyl])ST[αMeF]SRRAK(Ac)-NH2 [Relaxin peptide analogue of SEQ ID NO: 89]  97%
3. Ac-LEGREKVRAK(Ac)I[Aib][Aib]EGK([TTDS-TTDS-TTDS-γGlu-γGlu-γGlu-Palmitoyl])STFS[hLys]RAK(Ac)-NH2 [Relaxin peptide analogue of SEQ ID NO: 88]  96%
4. Ac-LEGREKVRAK(Ac)I[Aib][Aib]EGK([TTDS-TTDS-TTDS-γGlu-γGlu-γGlu-Palmitoyl])STFSRRAK(Ac)-NH2 [Relaxin peptide analogue of SEQ ID NO: 87]  96%
5. Ac-[Aib]EGREKVRAK(Ac)I[Aib]IEGK([TTDS-TTDS-TTDS-γGlu-γGlu-γGlu-Palmitoyl])STFS[αMeK]RAK(Ac)-NH2 [Relaxin peptide analogue of SEQ ID NO: 86]  95%
6. Ac-LEGREKVRAK(Ac)I[Aib]IEGK([TTDS-TTDS-TTDS-γGlu-γGlu-γGlu-Palmitoyl])STFS[αMeK]RAK(Ac)-NH2 [Relaxin peptide analogue of SEQ ID NO: 84]  95%
7. Ac-LEGREKVR[Aib]K(Ac)I[Aib][Aib]EGK([TTDS-TTDS-TTDS-γGlu-γGlu-γGlu-Palmitoyl])STWS[Aib]RAK(Ac)-NH2 [Relaxin peptide analogue of SEQ ID NO: 82]  95%
8. Ac-LEGREKVRAK(Ac)I[Aib][Aib]EGK([TTDS-TTDS-TTDS-γGlu-γGlu-γGlu-Palmitoyl])SKWS[Aib]RKK(Ac)-NH2 [Relaxin peptide analogue of SEQ ID NO: 83]  94%
9. Ac-LEGRERVR[Aib]K(Ac)I[Aib][Aib]EGK([TTDS-TTDS-TTDS-γGlu-γGlu-γGlu-Palmitoyl])STWS[Aib]RRK(Ac)-NH2 [Relaxin peptide analogue of SEQ ID NO: 85]  92%
10. B1  92%

Reference: patent US20240400638A1, “COMBINATION OF RELAXIN AND VASOPRESSIN ANALOGUES FOR TREATMENT OF RENAL DISORDERS OR CONDITIONS” (River 2 Renal Corp., priority 2021, published 2024)
